Data published in patent US20260078420A1.

Substrate: OC[C@H]1O[C@@H](O[C@H]2C(O)O[C@H](CO)[C@@H](O)[C@@H]2O)[C@H](O)[C@@H](O)[C@@H]1O
Assay: purified protein, by the assay type
Details: other: sophorose substrate; Gawronski phosphate release assay; 37.0 °C

B1: Rhizobium tropici β-1,2-glucan phosphorylase (RtSOGP, B6), wild type, SEQ ID NO: 11 (Martinezella tropici) (protein)
chain: MSSGTNRSFQTPRREELGLITLSNTAGLSASALPNGTLFSIDFADQQGGVMINQVLGSPVYGGIGRLYLRIGGAKPATAEIVGPKAAVQFGHGKSGFSWSGETAGVKHTISLRLHPNKTAWFWQVSLENSSNATLSADLVLVQDVGLGDRGFLMNSEAYASQYIDHHIADHSAFGPVIMVRQNLKQGGGRNPWLAQGCLEGAAAYATDAIQLLVPSKGNDGVMVPDFGTSLPSARRQHEVACPTIQSKPLALAAGAKATTTFFGLFIADHPAASSDADLAHLDGLPALQSELAAETISAGQPVRSLLQDAPLAESDDLDQAALDALYPRRMLEEHADGKLLSFFVPDGPHNRHIVLREKERLVARRHGAIVRSGQNMLLDDQTLAATCWMQGIFAAQLTIGNTSFHKLFSVSRDPYNLTRSSGLRILVDLGDGWRLLGVPAAFEMGLSDTRWIYRLPGRTIIVSAIASGDDPAMQWSVSVEGAACRFLVFGQIVLGERDYEAVANIAVDTAGKRISFQPQPSWLWDRYPKAGYHLVTSTPDAFEAIGGDELLYSDSTARNGPFIALKSHPTKALRFAVTGSMTDAQAAEALAARYTTGVESEEMLAPARRFWSHVTRGARIEGDGRDVAAQAVMLPWIAHDAIVHLSVPHGLEQYTGAAWGTRDVCQGPIEFLLAYEHDEEVRQILLTLFSEQYRDRGDWPQWFMLEPYANIRAGEAHGDIVVWPLKALCDYIEATGDIAFLAKTVPWRADDTMQLTSEHATISDHIEKLLDTVRSRFVPGTSLIRYGEGDWNDSLQPADPHLRDWMVSSWTVSLLYEQLVRYANILTLANRNDEAQSLQATAVAMRADFNRLLMRDGIVAGYGVFDPSHDGVELLLHPEDTRTGLHYSLIAMTQPMIGGLFAPEQRHAHMKIIRANLLFPDGVRLMEKPATYSGGPEKLFRRAESSSFFGREIGLMYVHAHLRYCEALALDDDAEAVWAALALANPIAVSGRVEHASLRQRNTYFSSSDAAFEDRYQASAEWTRVKAGDIAVDGGWRIYSSGPGLYTKSLIGNVFGFKRQFGQRIRKPLLPASIGACEVKLDFKA
- Km: 70 µM
- Vmax: 24 µmol/min/mg
- kcat: 50 s⁻¹
- kcat/Km: 717000 M⁻¹ s⁻¹
